# Experimental data: patent publication US20090227507A1, “Angiotensin (1-7) Dosage Forms and Uses Thereof” (UNIVERSITY OF SOUTHERN CALIFORNIA, priority 2008, published 2009)
# Entries after “also recorded” stand apart in the source; their conditions may differ.
# Assay: Adverse events, safety and tolerability in healthy men
# [1] = 200 μg/kg group, of the 7 events
# [2] = 300 μg/kg group, of the 13 events
# Description: Safety: Safety and tolerance evaluations included: • Tolerability including local reactions at the injection site. • Vital signs (blood pressure [BP], pulse rate [PR], respiration rate [RR], and temperature). • Routine clinical laboratory tests (hematology, serum biochemistry, and urinalysis). • Recording of adverse events (AE). • Electrocardiograms (ECG) at baseline and Day 8.
# Descriptive statistics were used to summarize adverse events (AEs). Descriptive statistics, with change from baseline, were used for clinical laboratory results, vital signs, and flow cytometry data. Shift tables were prepared for clinical laboratory results. Other data are listed.
# Safety evaluations are based on AEs, PEs, vital signs, temperature, and laboratory results from baseline to study completion. Laboratory measurements were conducted by a local clinical laboratory. Using standard procedures, blood samples were drawn or urine collected from subjects for the following laboratory tests:
# All AEs were coded using the Medical Dictionary for Regulatory Activities Version 5.1 (MedDRA®).
substance,measurement,setting,value
Asp-Arg-Val-Tyr-Ile-His-Pro [USB003],incidence of ALT increase,200 μg/kg,22.2%
same,incidence of body temperature increase,200 μg/kg,0.0%
same,"ALT increased, Events",200 μg/kg (N = 9),2
same,"ALT increased, Subjects",200 μg/kg (N = 9),2 (22.2) N (%)
same,"AST increased, Events",200 μg/kg (N = 9),1
same,"AST increased, Subjects",200 μg/kg (N = 9),1 (11.1) N (%)
same,"Body temperature increased, Events",200 μg/kg (N = 9),0
same,"Body temperature increased, Subjects",200 μg/kg (N = 9),0 (0.0) N (%)
same,"Cyst NOS, Events",200 μg/kg (N = 9),1
same,"Cyst NOS, Subjects",200 μg/kg (N = 9),1 (11.1) N (%)
same,"Gastroesophageal reflux, Events",200 μg/kg (N = 9),0
same,"Gastroesophageal reflux, Subjects",200 μg/kg (N = 9),0 (0.0) N (%)
same,"Gastrointestinal disorders, Events",200 μg/kg (N = 9),0
same,"Gastrointestinal disorders, Subjects",200 μg/kg (N = 9),0 (0.0) N (%)
same,"Headache, Events",200 μg/kg (N = 9),0
same,"Headache, Subjects",200 μg/kg (N = 9),0 (0.0) N (%)
same,"Infections/Infestations, Events",200 μg/kg (N = 9),0
same,"Injury, poisoning and procedural complications, Events",200 μg/kg (N = 9),0
same,"Injury, poisoning and procedural complications, Subjects",200 μg/kg (N = 9),0 (0.0) N (%)
same,"Investigations, Events",200 μg/kg (N = 9),4
same,"Investigations, Subjects",200 μg/kg (N = 9),2 (22.2) N (%)
same,"Joint sprain, Events",200 μg/kg (N = 9),0
same,"Joint sprain, Subjects",200 μg/kg (N = 9),0 (0.0) N (%)
same,"Nasal congestion, Events",200 μg/kg (N = 9),1
same,"Nasal congestion, Subjects",200 μg/kg (N = 9),1 (11.1) N (%)
same,"Nausea, Events",200 μg/kg (N = 9),0
same,"Nausea, Subjects",200 μg/kg (N = 9),0 (0.0) N (%)
same,"Neoplasms benign, Events",200 μg/kg (N = 9),1
same,"Neoplasms benign, Subjects",200 μg/kg (N = 9),1 (11.1) N (%)
same,"Nervous system disorders, Events",200 μg/kg (N = 9),0
same,"Nervous system disorders, Subjects",200 μg/kg (N = 9),0 (0.0) N (%)
same,"Neutrophil count increased, Events",200 μg/kg (N = 9),0
same,"Neutrophil count increased, Subjects",200 μg/kg (N = 9),0 (0.0) N (%)
same,"Pharyngitis, Events",200 μg/kg (N = 9),1
same,"Pharyngitis, Subjects",200 μg/kg (N = 9),1 (11.1) N (%)
same,"Respiratory, thoracic and mediastinal disorders, Events",200 μg/kg (N = 9),2
same,"Respiratory, thoracic and mediastinal disorders, Subjects",200 μg/kg (N = 9),1 (11.1) N (%)
same,"Subjects With At Least 1 AE, Events",200 μg/kg (N = 9),7
same,"Subjects With At Least 1 AE, Subjects",200 μg/kg (N = 9),4 (44.4) N (%)
same,"WBC increased, Events",200 μg/kg (N = 9),1
same,"WBC increased, Subjects",200 μg/kg (N = 9),1 (11.1) N (%)
same,"White blood cells in urine, Events",200 μg/kg (N = 9),0
same,"White blood cells in urine, Subjects",200 μg/kg (N = 9),0 (0.0) N (%)
same,subjects with clinically significant (CS) out-of-range laboratory values,200 μg/kg dose group,3
same,total CS laboratory abnormalities,200 μg/kg dose group,6
same,incidence of AEs,200 μg/kg group,44.4%
same,AE events assessed as doubtful relationship to study drug,[1],3
same,AE events assessed as not related to study drug,[1],2
same,AE events assessed as possible relationship to study drug,[1],2
same,"adverse event, Subject 028","200 μg/kg, Day 7, resolved without treatment on Study Day 10",cystic nodule on their anterior abdominal wall
same,incidence of ALT increase,300 μg/kg,0.0%
same,incidence of body temperature increase,300 μg/kg,50%
same,"ALT increased, Events",300 μg/kg (N = 8),0
same,"ALT increased, Subjects",300 μg/kg (N = 8),0 (0.0) N (%)
same,"AST increased, Events",300 μg/kg (N = 8),1
same,"AST increased, Subjects",300 μg/kg (N = 8),1 (12.5) N (%)
same,"Body temperature increased, Events",300 μg/kg (N = 8),7
same,"Body temperature increased, Subjects",300 μg/kg (N = 8),4 (50.0) N (%)
same,"Cyst NOS, Events",300 μg/kg (N = 8),0
same,"Cyst NOS, Subjects",300 μg/kg (N = 8),0 (0.0) N (%)
same,"Gastroesophageal reflux, Events",300 μg/kg (N = 8),0
same,"Gastroesophageal reflux, Subjects",300 μg/kg (N = 8),0 (0.0) N (%)
same,"Gastrointestinal disorders, Events",300 μg/kg (N = 8),1
same,"Gastrointestinal disorders, Subjects",300 μg/kg (N = 8),1 (12.5) N (%)
same,"Headache, Events",300 μg/kg (N = 8),0
same,"Headache, Subjects",300 μg/kg (N = 8),1 (12.5) N (%)
same,"Infections/Infestations, Events",300 μg/kg (N = 8),1
same,"Injury, poisoning and procedural complications, Events",300 μg/kg (N = 8),1
same,"Injury, poisoning and procedural complications, Subjects",300 μg/kg (N = 8),1 (12.5) N (%)
same,"Investigations, Events",300 μg/kg (N = 8),9
same,"Investigations, Subjects",300 μg/kg (N = 8),4 (50.0) N (%)
same,"Joint sprain, Events",300 μg/kg (N = 8),1
same,"Joint sprain, Subjects",300 μg/kg (N = 8),1 (12.5) N (%)
same,"Nasal congestion, Events",300 μg/kg (N = 8),0
same,"Nasal congestion, Subjects",300 μg/kg (N = 8),0 (0.0) N (%)
same,"Nausea, Events",300 μg/kg (N = 8),1
same,"Nausea, Subjects",300 μg/kg (N = 8),1 (12.5) N (%)
same,"Neoplasms benign, Events",300 μg/kg (N = 8),0
same,"Neoplasms benign, Subjects",300 μg/kg (N = 8),0 (0.0) N (%)
same,"Nervous system disorders, Events",300 μg/kg (N = 8),0
same,"Nervous system disorders, Subjects",300 μg/kg (N = 8),1 (12.5) N (%)
same,"Neutrophil count increased, Events",300 μg/kg (N = 8),1
same,"Neutrophil count increased, Subjects",300 μg/kg (N = 8),1 (12.5) N (%)
same,"Pharyngitis, Events",300 μg/kg (N = 8),0
same,"Pharyngitis, Subjects",300 μg/kg (N = 8),0 (0.0) N (%)
same,"Respiratory, thoracic and mediastinal disorders, Events",300 μg/kg (N = 8),0
same,"Respiratory, thoracic and mediastinal disorders, Subjects",300 μg/kg (N = 8),0 (0.0) N (%)
same,"Subjects With At Least 1 AE, Events",300 μg/kg (N = 8),13
same,"Subjects With At Least 1 AE, Subjects",300 μg/kg (N = 8),4 (50.0) N (%)
same,"WBC increased, Events",300 μg/kg (N = 8),0
same,"WBC increased, Subjects",300 μg/kg (N = 8),0 (0.0) N (%)
same,"White blood cells in urine, Events",300 μg/kg (N = 8),0
same,"White blood cells in urine, Subjects",300 μg/kg (N = 8),0 (0.0) N (%)
same,subjects with clinically significant (CS) out-of-range laboratory values,300 μg/kg dose group,1
same,total CS laboratory abnormalities,300 μg/kg dose group,2
same,subjects with elevations in oral body temperature assessed as an AE,"300 μg/kg dose group, temperature >37.7° C.",4
same,incidence of AEs,300 μg/kg group,50.0%
same,AE events assessed as doubtful relationship to study drug,[2],2
same,AE events assessed as not related to study drug,[2],3
same,AE events assessed as possible relationship to study drug,[2],8
same,"onset of headache after the morning dose, Subject 053","300 μg/kg, Day 2",10 h
same,"time to resolution of headache without treatment, Subject 053","300 μg/kg, Day 2",5 h
same,"severity of ankle sprain, Subject 046","300 μg/kg, study Day 18",Grade 2
same,deaths or serious adverse events,SC doses of 200 and 300 μg/kg,no deaths or other serious adverse events; also recorded: no deaths or SAEs
same,discontinuation from the study because of an AE,SC doses of 200 and 300 μg/kg,no subject discontinued from the study because of an AE; also recorded: no AE led to withdrawal from the study
same,safety and tolerability,SC doses of 200 and 300 μg/kg,safe and well tolerated
same,CTC scores of AEs,whole study,no AEs with CTC scores of Grade 3 or higher and only 1 Grade 2 toxicity
